Assay results as given in IntAct's records for PubMed 21893288.

B1: Translocated intimin receptor Tir (Escherichia coli O157:H7), Q7DB77 (parent)
chain: MPIGNLGHNPNVNNSIPPAPPLPSQTDGAGGRGQLINSTGPLGSRALFTPVRNSMADSGDNRASDVPGLPVNPMRLAASEITLNDGFEVLHDHGPLDTLNRQIGSSVFRVETQEDGKHIAVGQRNGVETSVVLSDQEYARLQSIDPEGKDKFVFTGGRGGAGHAMVTVASDITEARQRILELLEPKGTGESKGAGESKGVGELRESNSGAENTTETQTSTSTSSLRSDPKLWLALGTVATGLIGLAATGIVQALALTPEPDSPTTTDPDAAASATETATRDQLTKEAFQNPDNQKVNIDELGNAIPSGVLKDDVVANIEEQAKAAGEEAKQQAIENNAQAQKKYDEQQAKRQEELKVSSGAGYGLSGALILGGGIGVAVTAALHRKNQPVEQTTTTTTTTTTTSARTVENKPANNTPAQGNVDTPGSEDTMESRRSSMASTSSTFFDTSSIGTVQNPYADVKTSLHDSQVPTSNSNTSVQNMGNTDSVVYSTIQHPPRDTTDNGARLLGNPSAGIQSTYARLALSGGLRHDMGGLTGGSNSAVNTSNNPPAPGSHRFV
B2: BAR/IMD domain-containing adapter protein 2 (Homo sapiens), Q9UQB8-4 (parent)
chain: MSLSRSEEMHRLTENVYKTIMEQFNPSLRNFIAMGKNYEKALAGVTYAAKGYFDALVKMGELASESQGSKELGDVLFQMAEVHRQIQNQLEEMLKSFHNELLTQLEQKVELDSRYLSAALKKYQTEQRSKGDALDKCQAELKKLRKKSQGSKNPQKYSDKELQYIDAISNKQGELENYVSDGYKTALTEERRRFCFLVEKQCAVAKNSAAYHSKGKELLAQKLPLWQQACADPSKIPERAVQLMQQVASNGATLPSALSASKSNLVISDPIPGAKPLPVPPELAPFVGRMSAQESTPIMNGVTGPDGEDYSPWADRKAAQPKSLSPPQSQSKLSDSYSNTLPVRKSVTPKNSYATTENKTLPRSSSMAAGLERNGRMRVKAIFSHAAGDNSTLLSFKEGDLITLLVPEARDGWHYGESEKTKMRGWFPFSYTRVLDSDGSDRLHMSLQQGKSSSTGNLLDKDDLAIPPPDYGAASRAFPAQTASGFKQRPYSVAVPAFSQGLDDYGARSMSSGSGTLVSTV

Columns and labels:
BAIAP2, Q9UQB8-4 = variants of: B1; settings: with BAIAP2, Q9UQB8-4
tir_eco27 tir, B7UM99 [1] = variants of: B2; settings: with tir_eco27 tir
tir_eco57 tir, Q7DB77 [2] = variants of: B2; settings: with tir_eco57 tir
tir_eco27 tir, B7UM99 [3] = variants of: B2; settings: with tir_eco27 tir; remark: listed apart in the source
tir_eco57 tir, Q7DB77 [4] = variants of: B2; settings: with tir_eco57 tir; remark: listed apart in the source
tir_eco57 tir, Q7DB77 [5] = variants of: B2; settings: with tir_eco57 tir; remark: listed apart in the source

| Variant | effect of a mutation on the interaction (BAIAP2, Q9UQB8-4) | effect of a mutation on the interaction (tir_eco27 tir, B7UM99 [1]) | effect of a mutation on the interaction (tir_eco57 tir, Q7DB77 [2]) | effect of a mutation on the interaction (tir_eco27 tir, B7UM99 [3]) | effect of a mutation on the interaction (tir_eco57 tir, Q7DB77 [4]) | effect of a mutation on the interaction (tir_eco57 tir, Q7DB77 [5]) |
| --- | --- | --- | --- | --- | --- | --- |
| Y458F | disrupting interaction |  |  |  |  |  |
| MSLSRSEEMHRLTENVYKTIMEQFNPSLRNFIAMGKNYEKALAGVTYAAKGYFDALVKMGELASESQGSKELGDVLFQMAEVHRQIQNQLEEMLKSFHNELLTQLEQAVELDSRYLSAALKKYQTEQRSKGDALDKCQAELKKLRKKSQGSKNPQKYSDKELQYIDAISNKQGELENYVSDGYKTALTEERRSFCFLVEKQCAVAKNSAAYHSKGKELLAQKLPLWQQACADPSKIPERAVQLMQQVASNGATLPSALSASKSNLVISDPIPGAKPLPVPPELAPFVGRMSAQESTPIMNGVTGPDGEDYSPWADRKAAQPKSLSPPQSQSKLSDSYSNTLPVRKSVTPKNSYATTENKTLPRSSSMAAGLERNGRMRVKAIFSHAAGDNSTLLSFKEGDLITLLVPEARDGWHYGESEKTKMRGWFPFSYTRVLDSDGSDRLHMSLQQGKSSSTGNLLDKDDLAIPPPDYGAASRAFPAQTASGFKQRPYSVAVPAFSQGLDDYGARSMSSGSGTLVSTV [K108A;R193S] |  | disrupting interaction | disrupting interaction |  |  |  |
| MSLSRSEEMHRLTENVYKTIMEQFNPSLRNFIAMGKNYEKALAGVTYAAKGYFDALVKMGELASESQGSKELGDVLFQMAEVHRQIQNQLEEMLKSFHNELLTQLEQAVELDSRYLSAALKKYQTEQRSKGDALDKCQAELKKLRKKSQGSKNPQKYSDKELQYIDAISNKQGELENYVSDGYKTALTEERRRFCALVEKQCAVAKNSAAYHSKGKELLAQKLPLWQQACADPSKIPERAVQLMQQVASNGATLPSALSASKSNLVISDPIPGAKPLPVPPELAPFVGRMSAQESTPIMNGVTGPDGEDYSPWADRKAAQPKSLSPPQSQSKLSDSYSNTLPVRKSVTPKNSYATTENKTLPRSSSMAAGLERNGRMRVKAIFSHAAGDNSTLLSFKEGDLITLLVPEARDGWHYGESEKTKMRGWFPFSYTRVLDSDGSDRLHMSLQQGKSSSTGNLLDKDDLAIPPPDYGAASRAFPAQTASGFKQRPYSVAVPAFSQGLDDYGARSMSSGSGTLVSTV [K108A;F196A] |  | disrupting interaction | disrupting interaction |  |  |  |
| MSLSRSEEMHRLTENVYKTIMEQFNPSLRNFIAMGKNYEKALAGVTYAAKGYFDALVKMGELASESQGSKELGDVLFQMAEVHRQIQNQLEEMLKSFHNELLTQLEQKVELDSRYLSAALKKYQTEQRSKGDALDKCQAELKKLRKKSQGSKNPQKYSDKELQYIDAISNKQGELENYVSDGYKTALTEERRRFCALVEKQCAVAKNSAAYHSKGKELLAQKLPLWQQACADPSKIPERAVQLMQQVASNGATLPSALSASKSNLVISDPIPGAKPLPVPPELAPFVGRMSAQESTPIMNGVTGPDGEDYSPWADRKAAQPKSLSPPQSQSKLSDSYSNTLPVRKSVTPKNSYATTENKTLPRSSSMAAGLERNGRMRVKAIFSHAAGDNSTLLSFKEGDLITLLVPEARDGWHYGESEKTKMRGWFPFSYTRVLDSDGSDRLHMSLQQGKSSSTGNLLDKDDLAIPPPDYGAASRAFPAQTASGFKQRPYSVAVPAFSQGLDDYGARSMSSGSGTLVSTV [F196A] |  | decreasing interaction |  | disrupting interaction | disrupting interaction | decreasing interaction |
| MSLSRSEEMHRLTENVYKTIMEQFNPSERNFIAMGKNYEKALAGVTYAAKGYFDALVKMGELASESQGSKELGDVLFQMAEVHRQIQNQLEEMLKSFHNELLTQLEQKVELDSRYLSAALKKYQTEQRSKGDALDKCQAELKKLRKKSQGSKNPQKYSDKELQYIDAISNKQGELENYVSDGYKTALTEERRRFCFLVEKQCAVAKNSAAYHSKGKELLAQKLPLWQQACADPSKIPERAVQLMQQVASNGATLPSALSASKSNLVISDPIPGAKPLPVPPELAPFVGRMSAQESTPIMNGVTGPDGEDYSPWADRKAAQPKSLSPPQSQSKLSDSYSNTLPVRKSVTPKNSYATTENKTLPRSSSMAAGLERNGRMRVKAIFSHAAGDNSTLLSFKEGDLITLLVPEARDGWHYGESEKTKMRGWFPFSYTRVLDSDGSDRLHMSLQQGKSSSTGNLLDKDDLAIPPPDYGAASRAFPAQTASGFKQRPYSVAVPAFSQGLDDYGARSMSSGSGTLVSTV [L28E] |  | disrupting interaction |  |  |  | disrupting interaction |
| MSLSRSEEMHRLTENVYKTIMEQFNPSLRNFIAMGKNYEKALAGVTYAAKGYFDALVKMGELASESQGSKELGDVLFQMAEVHRQIQNQLEEMLKSFHNELLTQLEQKVELDSRYLSAALKKYQTEQRSKGDALDKCQAELKKLRKKSQGSKNPQKYSDKELQYIDAISNKQGELENYVSDGYKTALTEERRSFCFLVEKQCAVAKNSAAYHSKGKELLAQKLPLWQQACADPSKIPERAVQLMQQVASNGATLPSALSASKSNLVISDPIPGAKPLPVPPELAPFVGRMSAQESTPIMNGVTGPDGEDYSPWADRKAAQPKSLSPPQSQSKLSDSYSNTLPVRKSVTPKNSYATTENKTLPRSSSMAAGLERNGRMRVKAIFSHAAGDNSTLLSFKEGDLITLLVPEARDGWHYGESEKTKMRGWFPFSYTRVLDSDGSDRLHMSLQQGKSSSTGNLLDKDDLAIPPPDYGAASRAFPAQTASGFKQRPYSVAVPAFSQGLDDYGARSMSSGSGTLVSTV [R193S] |  | disrupting interaction |  |  |  | disrupting interaction |
| MSLSRSEEMHRLTENVYKTIMEQFNPSLRNFIAMGKNYEKALAGVTYAAKGYFDALVKMGELASESQGSKELGDVLFQMAEVHRQIQNQLEEMLKSFHNELLTQLEQAVELDSRYLSAALKKYQTEQRSKGDALDKCQAELKKLRKKSQGSKNPQKYSDKELQYIDAISNKQGELENYVSDGYKTALTEERRRFCFLVEKQCAVAKNSAAYHSKGKELLAQKLPLWQQACADPSKIPERAVQLMQQVASNGATLPSALSASKSNLVISDPIPGAKPLPVPPELAPFVGRMSAQESTPIMNGVTGPDGEDYSPWADRKAAQPKSLSPPQSQSKLSDSYSNTLPVRKSVTPKNSYATTENKTLPRSSSMAAGLERNGRMRVKAIFSHAAGDNSTLLSFKEGDLITLLVPEARDGWHYGESEKTKMRGWFPFSYTRVLDSDGSDRLHMSLQQGKSSSTGNLLDKDDLAIPPPDYGAASRAFPAQTASGFKQRPYSVAVPAFSQGLDDYGARSMSSGSGTLVSTV [K108A] |  |  |  | disrupting interaction | disrupting interaction |  |
